Experimental data taken from publication PMC10447908 (2023).

B1: Xiang-Liu 2 (designed binder)
chain: NDDELHMLMTDLVYEALHFAKDEEIKKRVFQLFELADKAYKNNDRQKLEKVVEELKELLERLLSEEDPCACESILKFEAKVEGLLQALTRKLEAVSGRLAVLENRIIQVQLVESGGGLVQAGGSLRLSCAASGRTFSNDALGWFRQAPRKEREFVAAINWNSGTYYADSVKGRFTISRDNAKNTVYLQMNSLKPEDTAVYSCAAASDYGLPREDFLYDYWGQGTQVTVSS
B2: Xiang-Liu 1 (designed binder)
chain: NDDELHMLMTDLVYEALHFAKDEEIKKRVFQLFELADKAYKNNDRQKLEKVVEELKELLERLLSEEDPCACESILKFEAKVEGLLQALTRKLEAVSGRLAVLENRIIDKEWILQKIYEIMRLLDELGHAEASMRVSDLIYEFMKKGDERLLEEAERLLEEVER

Tests used:
Assay in all cases: FACS
[1] = biological target: SARS-CoV-2 Spike receptor binding domain, Wuhan (ancestral) variant (SARS-CoV-2, UniProt P0DTC2, biotinylated in vitro when needed)
[2] = biological target: SARS-CoV-2 Spike receptor binding domain, Omicron variant (SARS-CoV-2, UniProt P0DTC2, biotinylated in vitro when needed)
[3] = biological target: SARS-CoV-2 Spike receptor binding domain, Delta variant (SARS-CoV-2, UniProt P0DTC2, biotinylated in vitro when needed)

Row | Binder | IC50 [1] [nM] | IC50 [2] [nM] | IC50 [3] [nM]
1 | B1 | 12.6 | 5.2 | 6.8
2 | B2 | 9.3 | 36.4 | 5.1
